# Experiments:
# E. coli J5 = assay: Radial diffusion assay, antibacterial activity; assay type: cell-based; details: order: XMP.284, XMP.13, XMP.391, XMP.366, XMP.353, XMP.406, XMP.407 (most to least)
# Method: To assess the antibacterial activity of the recombinantly produced peptides, additional experiments are conducted with E. coli J5 or E. coli E104 cells in a radial diffusion assay. For these experiments, cultures of E. coli J5 were grown overnight in TYE broth (15 g tryptone, 10 g yeast extract, 5 g NaCl per liter) and then grown to mid logarithmic phase in TEA broth media (Simon et al., Proc. Nat'l. Acad. Sci. (USA), 51:877-883 (1964)). E. coli J5 cells at 2-3×10^5 cells/mL were added to molten 0.8% agarose containing nutrient broth. Serial dilutions of peptides were prepared in 0.15 M NaCl. Five μl of the diluted peptides, or as a control, saline alone, were added to 3 mm wells prepared in the hardened agarose (5 μl/well). The plates were sealed with parafilm to prevent drying and incubated at 37° C. for 24 hours. Zones of inhibition were measured and the net areas of inhibition determined by subtracting the area comprising the 3 mm well from the area encompassing the 3 mm well plus the inhibition zone. Recombinantly produced peptides are assayed for antibacterial activity and compared to the equivalent synthetic peptides. […] Synthetic peptides XMP.406 and XMP.407 have the same sequences as peptides prepared from the encoded fusion protein described in Example 1, Section 7 and Example 3.
# gram-negative bacteria = details: broad range of gram-negative bacteria; Elsbach and Weiss (1992); cited from earlier work
# [1] = test system: human, rabbit and sheep red blood cells and several human tumor cell lines; details: 10^−6 M; cited from earlier work
# [2] = test system: Staphylococcus aureus (four strains), Staphylococcus epidermidis, Streptococcus faecalis, Bacillus subtilis, Micrococcus lysodeikiticus, and Listeria …; details: 10^−6 M or 160 μg/mL; pH of either 7.0 or 5.5; cited from earlier work
# [3] = test system: Candida albicans and Candida parapsilosis; details: 10^−6 M; pH 7.0 or 5.5; cited from earlier work
Molecule,"antibacterial activity, rank order of synthetic peptides (E. coli J5)",concentration at which anti-bacterial activity is exhibited (as low as) (gram-negative bacteria),toxicity to higher eukaryotic cells [1],toxic effect on gram-positive organisms [2],toxic effect on fungi [3]
"XMP.284: BPI 149-161, K @ 152 (G) (SKVKWLIQLFHK)",the most antibacterial activity,,,,
"XMP.407: BPI 147-162, P @ 147 (S), A @ 153 (W), D @ 162 (I) (PKSKVGALIQLFHKKD)",the least bactericidal,,,,
"BPI: bactericidal/permeability-increasing protein, isolated from granules of mammalian polymorphonuclear leukocytes, approximately 55 kD (protein, UniProt P17213 32-487, looked up) Bactericidal …: VNPGVVVRISQKGLDYASQQGTAALQKELKRIKIPDYSDSFKIKHLGKGHYSFYSMDIREFQLPSSQISMVPNVGLKFSISNANIKISGKWKAQKRFLKMSGNFDLSIEGMSISADLKLGSNPTSGKPTITCSSCSSHINSVHVHISKSKVGWLIQLFHKKIESALRNKMNSQVCEKVTNSVSSELQPYFQTLPVMTKIDSVAGINYGLVAPPATTAETLDVQMKGEFYSENHHNPPPFAPPVMEFPAAHDRMVYLGLSDYFFNTAGLVYQEAGVLKMTLRDDMIPKESKFRLTTKFFGTFLPEVAKKFPNMKIQIHVSASTPPHLSVQPTGLTFYPAVDVQAFAVLPNSSLASLFLIGMHTTGSMEVSAESNRLVGELKLDRLLLELKHSNIGPFPVELLQDIMNYIVPILVLPRVNEKLQKGFPLPTPARVQLYNVVLQPHQNFLLFGADVVYK",,10^−8 to 10^−9 M,non-toxic,no toxic effect,no toxic effect
